Source: article PMC10444775 (Scientific Reports, 2023)

Key:
Conditions in all cases: both partners purified
[1] = biological target: CoV-2-S-RBD-SD1 spike construct (SARS-CoV-2, UniProt P0DTC2); test: ELISA
[2] = biological target: SARS-CoV-2 RBD domain (used for HDX-MS of 7A9) (SARS-CoV-2, reference strain …); test: HDX-MS
[3] = biological target: CoV-2-S-RBD construct used for x-ray crystallography (SARS-CoV-2, UniProt P0DTC2); test: crystal structure

Measured: binding result

B1: 7A9 VHH (VHH)
VHH: QVQLVESGGGLVQAGGSLRLSCSASGGTASRSAMGWFRQAPGKEREFVAGISRRNSGSTYVADSYEDSVKGRFTISRDNAKNTIYLQMNSLKPEDTAVYYCAAEPTLGWYVPRRSVEYEYWGQGTQVTVSS
binds: all assays above
